Consider 1 substance from patent US20120177704A1.

The target in this assay is human interleukin 12 (human) (UniProt P29459). The assay is described as follows: cell-based or functional assay.
Sequence of UniProt P29459 (P29459 23-219 limits assumed, chain 1 of 2): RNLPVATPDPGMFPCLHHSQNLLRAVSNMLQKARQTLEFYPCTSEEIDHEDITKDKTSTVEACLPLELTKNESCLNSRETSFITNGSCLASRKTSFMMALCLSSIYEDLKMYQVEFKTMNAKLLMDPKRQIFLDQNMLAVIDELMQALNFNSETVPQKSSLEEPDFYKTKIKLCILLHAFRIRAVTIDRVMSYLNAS
Sequence of UniProt P29459 (P29460 23-328 limits assumed, chain 2 of 2, further chain): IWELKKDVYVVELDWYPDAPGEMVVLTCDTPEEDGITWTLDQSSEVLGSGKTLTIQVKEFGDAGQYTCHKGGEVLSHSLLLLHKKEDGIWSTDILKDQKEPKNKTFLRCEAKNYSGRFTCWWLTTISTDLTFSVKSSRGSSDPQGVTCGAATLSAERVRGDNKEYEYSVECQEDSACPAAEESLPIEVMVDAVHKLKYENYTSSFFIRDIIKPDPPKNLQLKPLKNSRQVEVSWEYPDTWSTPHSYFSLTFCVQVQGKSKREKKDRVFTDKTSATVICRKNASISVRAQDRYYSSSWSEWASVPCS

In the case of monoclonal antibody ABT-874, the relative biological activity (mean IC50 of reference standard / IC50 of sample x 100%); inhibition of IL-12-stimulated IFN-γ production of NK-92 cells, IFN-γ measured by ELISA was determined as 98%.
